Results from IntAct's records for PubMed 18812496.

B1: Plastid division protein PDV2 (Arabidopsis thaliana (Mouse-ear cress)), Q9XII1 (parent)
chain: MEDEEGIGLILARATELRLKISDCIDNSSTTVSDNGDGNEDLSPGEGRKSEIIGNQDKDFDSISSEDVDEAEAERLLRIRDALEALESQLASLQNLRQRQQYEKQLALSEIDYSRKMLLEKLKEYKGKDFEVLRETTTFAGERVDYENDLLLPPYPVHPPLSLGLDNNNGYLSHLPSKKKSDANGFGSGHVRNEAEAKSPNGGSGGSSHGVIRFLGSVAKIVLPIIGVISLLSASGYGPEMRKRGASLNLFGLLPHRATRGKRTPNQCPPGKVLVIEDGEARCLVKERVEIPFDSVVAKRDVTYGYG
partner: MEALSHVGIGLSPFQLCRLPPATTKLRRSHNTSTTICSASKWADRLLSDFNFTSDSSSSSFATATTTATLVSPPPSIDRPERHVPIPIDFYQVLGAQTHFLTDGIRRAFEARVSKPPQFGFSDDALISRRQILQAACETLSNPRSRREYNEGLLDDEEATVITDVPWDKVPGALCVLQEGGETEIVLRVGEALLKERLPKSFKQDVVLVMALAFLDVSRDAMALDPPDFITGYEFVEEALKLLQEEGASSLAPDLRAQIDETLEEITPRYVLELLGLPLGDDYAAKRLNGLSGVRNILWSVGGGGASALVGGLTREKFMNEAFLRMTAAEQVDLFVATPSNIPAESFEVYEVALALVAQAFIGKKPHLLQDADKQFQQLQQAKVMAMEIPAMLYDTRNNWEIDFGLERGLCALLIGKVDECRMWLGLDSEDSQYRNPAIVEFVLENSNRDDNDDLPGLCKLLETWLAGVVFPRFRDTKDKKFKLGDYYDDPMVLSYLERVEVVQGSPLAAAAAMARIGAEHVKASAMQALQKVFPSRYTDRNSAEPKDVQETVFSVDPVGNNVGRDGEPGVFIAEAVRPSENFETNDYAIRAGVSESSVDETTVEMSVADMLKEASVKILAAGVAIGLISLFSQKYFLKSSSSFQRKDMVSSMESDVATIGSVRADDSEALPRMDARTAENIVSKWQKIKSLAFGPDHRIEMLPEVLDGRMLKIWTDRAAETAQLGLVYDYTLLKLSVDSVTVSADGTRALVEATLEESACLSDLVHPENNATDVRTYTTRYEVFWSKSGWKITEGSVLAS

Variants of: B1
Conditions: with arc6_arath ARC6, Q9FIG9

effect of a mutation on the interaction | Variant
decreasing interaction | G307D
